In publication PMC4047914 (Cell Death & Disease, 2014):
Substitutions are numbered along the chain they refer to. Names and notes keep the numbering of the source. Values joined by “and” are separate entries in the source; they are usually repeats but may differ in a detail not shown here. Identical values can stand only once.

What was measured:
[1] = molecular target: ErbB2/delD4 (human ErbB2 lacking ECD subdomain D4) (human) (UniProt P04626); test: ELISA
[2] = molecular target: ErbB2/delD2 (human ErbB2 lacking ECD subdomain D2) (human) (UniProt P04626); test: ELISA
[3] = molecular target: human ErbB2, wild type, transiently overexpressed in CHO-K1 cells from pCMV6-XL5-ERBB2 (human, UniProt P04626 23-1255); test: ELISA
[4] = molecular target: human ErbB2 stably overexpressed in CHO-K1 cells (CHO-K1/ErbB2 cells, pcDNA3-ERBB2) (human, UniProt P04626 23-1255); test: cross-linking
[5] = molecular target: the molecule itself

B1: Recombinant human prolidase (PEPD), wild type (enzyme)
chain: MAAATGPSFWLGNETLKVPLALFALNRQRLCERLRKNPAVQAGSIVVLQGGEETQRYCTDTGVLFRQESFFHWAFGVTEPGCYGVIDVDTGKSTLFVPRLPASHATWMGKIHSKEHFKEKYAVDDVQYVDEIASVLTSQKPSVLLTLRGVNTDSGSVCREASFDGISKFEVNNTILHPEIVECRVFKTDMELEVLRYTNKISSEAHREVMKAVKVGMKEYELESLFEHYCYSRGGMRHSSYTCICGSGENSAVLHYGHAGAPNDRTIQNGDMCLFDMGGEYYCFASDITCSFPANGKFTADQKAVYEAVLRSSRAVMGAMKPGVWWPDMHRLADRIHLEELAHMGILSGSVDAMVQAHLGAVFMPHGLGHFLGIDVHDVGGYPEGVERIDEPGLRSLRTARHLQPGMVLTVEPGIYFIDHLLDEALADPARASFLNREVLQRFRGFGGVRIEEDVVVTDSGIELLTCVPRTVEEIEACMAGCDKAFTPFSGPK
Work on B1 yielded a fold reduction of binding affinity against wild-type ErbB2 [1] of 51 fold, a fold reduction of binding affinity against wild-type ErbB2 [2] of 3.5 fold and a Kd [3] of 7.3 nM. For the same binder, the “stoichiometry N” value [4] was 2 PEPD per 2 ErbB2 (heterotetramer) and 2 PEPD per 1 ErbB2 (heterotrimer) and the “stoichiometry N” value [5] was 2.

B2: G278D-PEPD (human PEPD, G→D at amino acid no. 278) (enzyme)
chain: B1 chain with G278D
In the case of B2, the “stoichiometry N” value [5] is reported as 2.
